Results reported in patent US20180073089.

Target: recombinant substrate protein VAMP-2 (2-94)-GFP (UniProt P63027)
Sequence (P63027 2-94): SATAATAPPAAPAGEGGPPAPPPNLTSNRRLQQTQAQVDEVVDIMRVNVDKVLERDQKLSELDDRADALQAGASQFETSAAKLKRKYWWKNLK

## native BoNT/F (nBoNT/F) control
  % of cleaved product: 65% versus 46%
  specific activity: 26 nmol/h/pmol vs 18 nmol/h/pmol
